Measured values taken from patent US20250144178A1 (KANAPH THERAPEUTICS, published 2025).

T1: human FAP (fibroblast activation protein alpha) overexpressed in HEK293 cells (HEK293-hFAP) (human, UniProt Q12884 1-760)
T1 construct: whole, on cells; also called human FAP-expressing cell line
T1 sequence (looked up): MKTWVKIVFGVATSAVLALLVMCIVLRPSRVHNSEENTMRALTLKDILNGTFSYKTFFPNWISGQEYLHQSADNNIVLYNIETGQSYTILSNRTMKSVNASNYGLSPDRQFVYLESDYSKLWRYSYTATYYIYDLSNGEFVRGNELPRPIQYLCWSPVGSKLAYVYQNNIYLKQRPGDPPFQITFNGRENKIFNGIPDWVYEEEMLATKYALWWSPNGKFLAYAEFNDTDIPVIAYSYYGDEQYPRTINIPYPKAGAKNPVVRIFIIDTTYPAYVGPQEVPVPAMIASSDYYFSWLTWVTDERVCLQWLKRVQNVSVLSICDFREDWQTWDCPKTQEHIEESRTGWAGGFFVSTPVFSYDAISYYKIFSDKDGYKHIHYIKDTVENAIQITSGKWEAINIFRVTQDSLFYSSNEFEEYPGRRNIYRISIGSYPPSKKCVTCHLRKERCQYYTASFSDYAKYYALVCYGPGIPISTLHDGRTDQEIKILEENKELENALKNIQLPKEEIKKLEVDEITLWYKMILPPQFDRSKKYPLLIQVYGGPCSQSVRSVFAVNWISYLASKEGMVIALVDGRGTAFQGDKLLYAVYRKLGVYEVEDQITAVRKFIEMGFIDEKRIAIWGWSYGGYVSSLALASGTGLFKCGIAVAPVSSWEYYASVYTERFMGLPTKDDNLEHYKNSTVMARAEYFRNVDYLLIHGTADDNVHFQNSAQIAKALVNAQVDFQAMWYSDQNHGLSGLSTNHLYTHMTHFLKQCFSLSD

T2: recombinant human FAP (human, UniProt Q12884 26-760)
T2 construct: Soluble analyte in SPR; The description calls FAP a homodimer; also called rhFAP
T2 sequence (looked up): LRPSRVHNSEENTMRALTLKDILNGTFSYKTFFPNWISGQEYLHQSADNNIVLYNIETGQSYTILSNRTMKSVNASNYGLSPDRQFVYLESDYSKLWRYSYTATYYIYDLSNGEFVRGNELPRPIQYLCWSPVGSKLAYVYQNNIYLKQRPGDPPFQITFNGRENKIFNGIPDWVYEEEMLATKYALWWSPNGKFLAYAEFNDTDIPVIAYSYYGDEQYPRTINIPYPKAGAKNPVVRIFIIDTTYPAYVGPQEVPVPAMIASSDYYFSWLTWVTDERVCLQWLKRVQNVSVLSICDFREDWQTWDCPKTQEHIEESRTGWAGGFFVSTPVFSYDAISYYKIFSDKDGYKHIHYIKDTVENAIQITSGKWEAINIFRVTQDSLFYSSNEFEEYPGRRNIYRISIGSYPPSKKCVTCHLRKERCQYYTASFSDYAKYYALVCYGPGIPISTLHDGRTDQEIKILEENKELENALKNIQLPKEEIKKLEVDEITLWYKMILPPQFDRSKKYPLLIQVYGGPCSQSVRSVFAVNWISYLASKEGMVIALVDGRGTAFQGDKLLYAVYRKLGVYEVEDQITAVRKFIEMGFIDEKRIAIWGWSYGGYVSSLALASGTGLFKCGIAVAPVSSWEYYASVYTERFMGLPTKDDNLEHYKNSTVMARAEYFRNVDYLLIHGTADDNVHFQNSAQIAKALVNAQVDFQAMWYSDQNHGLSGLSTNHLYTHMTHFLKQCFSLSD


How the values were obtained:
[1] = molecular target: T1, human FAP (fibroblast activation …); assay: flow cytometry on HEK293-hFAP cells, detection with anti-human IgG antibody
Description: (§1) Specifically, the cell line was prepared by suspending in a FACS buffer solution at 1×10⁵ cells/100 μl, and treated with 1 μg each of T1.12, T1.01, T1.02 and T1.03. The cells were washed twice with a FACS buffer solution. The cells were stained with an anti-human IgG antibody (Biolegend). The negative control was stained only with an anti-human IgG antibody (Biolegend). The expression rates of the stained cells were measured using BD LSR and analyzed using a FlowJo software.

[2] = molecular target: IL-12 receptor of human T cells (human, UniProt P42701 24-662; Q99665 24-862); assay: cell-based or functional assay
IL-12 receptor of human T cells, sequence (Q99665 24-862, chain 2 of 2, other chains not shown): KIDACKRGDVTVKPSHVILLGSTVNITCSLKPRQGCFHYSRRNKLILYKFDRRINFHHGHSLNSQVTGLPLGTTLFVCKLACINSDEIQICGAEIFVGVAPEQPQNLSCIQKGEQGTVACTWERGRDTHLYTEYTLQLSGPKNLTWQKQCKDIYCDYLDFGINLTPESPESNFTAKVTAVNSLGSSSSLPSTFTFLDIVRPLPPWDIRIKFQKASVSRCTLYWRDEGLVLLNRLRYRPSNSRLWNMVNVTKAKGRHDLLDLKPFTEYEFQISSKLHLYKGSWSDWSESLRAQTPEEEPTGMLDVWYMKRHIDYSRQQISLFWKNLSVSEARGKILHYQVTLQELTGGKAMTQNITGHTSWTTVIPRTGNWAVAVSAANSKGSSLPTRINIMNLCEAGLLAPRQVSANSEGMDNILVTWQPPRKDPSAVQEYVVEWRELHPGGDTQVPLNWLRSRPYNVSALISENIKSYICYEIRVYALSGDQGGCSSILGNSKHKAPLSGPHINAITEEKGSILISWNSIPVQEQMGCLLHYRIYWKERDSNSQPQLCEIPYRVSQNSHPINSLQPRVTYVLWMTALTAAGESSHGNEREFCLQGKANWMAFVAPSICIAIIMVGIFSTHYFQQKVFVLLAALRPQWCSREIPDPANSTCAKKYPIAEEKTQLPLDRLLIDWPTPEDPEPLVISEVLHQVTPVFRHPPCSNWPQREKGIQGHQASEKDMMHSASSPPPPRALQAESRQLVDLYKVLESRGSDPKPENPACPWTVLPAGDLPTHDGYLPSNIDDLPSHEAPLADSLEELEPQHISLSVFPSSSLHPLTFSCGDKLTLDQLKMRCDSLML

[3] = molecular target: T1, human FAP (fibroblast activation …); assay: flow cytometry on HEK293-hFAP cells, 1 µg protein per 1x10^5 cells, anti-human IgG detection
Description: as §1

[4] = molecular target: T3, IL-12 receptor beta 1-biotin (recombinant human IL-12 receptor protein) (human, UniProt P42701 24-545, limits assumed, biotin (site not stated)); assay: ELISA, fusion protein coated in serial dilution, 1 nM IL-12Rβ1-biotin, streptavidin-HRP, OD at 450 nm
T3 construct: Bought reagent; also called IL-12Rβ1-Biotin
Description: (ii) The wells were washed with a wash solution, and then blocking was performed for 1 hour with 1% BSA (Bovine serum albumin, Sigma) solution.
(iii) The wells were washed with a wash solution, and then treated with 1 nM IL-12 receptor beta 1-biotin (IL-12Rβ1-Biotin; Acrobiosystems, Newark, USA) for 2 hours.
(iv) The wells were washed with a wash solution, and then treated with streptavidin-HRP for 20 minutes.

recombinant human FAP [5] = molecular target: T2, recombinant human FAP; assay: SPR, fusion protein captured by anti-human IgG (Fc) on a CM5 chip, hFAP his as analyte 0.78125-50 nM, 1:1 binding model
recombinant human FAP [6] = molecular target: T2, recombinant human FAP; assay: SPR, fusion protein captured by anti-human IgG (Fc) on a CM5 chip, human FAP as analyte 1.5625-200 nM, 1:1 binding model
Description: Specifically, the surface of the CM5 chip was activated with a 1:1 mixture of […] NHS (N-hydroxysuccinimide) and […] EDC (1-Ethyl-3-(3-dimethylaminopropyl) carbodiimide), and 25 μg/ml of anti-human IgG (Fc) antibody was immobilized for 400 seconds at a rate of 10 μl/min. The remaining active ester groups were blocked with 1 M ethanolamine. T1.01, T1.02 and T1.03 were diluted to 2 μg/ml and reacted on the CM5 chip immobilized with the anti-human IgG (Fc) antibody. The recombinant human FAP was diluted to 200 nM in 1×HBS-EP+buffer solution and diluted by serial dilution. The diluted recombinant human FAP was reacted at a rate of 30 μl/min. The association and dissociation times were 180 seconds and 400 seconds, respectively. After the dissociation, stabilization was performed for 60 seconds, and then a regeneration was performed for 30 seconds with a 10 mM glycine pH 1.5 solution at a rate of 30 μl/min.

Row | percent of cells in the positive gate (hFAP-PE) [1] | fold change of the p-STAT4 EC50 with low molecular weight heparin against without, activated human T cells [2] | half maximal effective concentration (EC50) of p-STAT4 (Tyr693), AlphaLISA, activated human T cells [2] | percent of cells bound [3] | EC50 (read off the curve) [4] | Kd (recombinant human FAP [5]) | koff (recombinant human FAP [5]) | kon (recombinant human FAP [5]) | Kd (recombinant human FAP [6]) | koff (recombinant human FAP [6]) | kon (recombinant human FAP [6]) | Binder
1 | 99.8% | 5.5 times | 0.0565 nM | ≥ 99% | ~20 nM | 0.595 nM | 0.000139 s⁻¹ | 235000 M⁻¹ s⁻¹ |  |  |  | T1.02 (anti-hu FAP/hu IL-12 mut1, hu IgG1 DANG) (bispecific antibody, Knob-in-hole heterodimer) heavy: QVQLVQSGAEVKKPGASVKVSCKTSRYTFTEYTIHWVRQAPGQRLEWIGGINPNNGIPNYNQKFKGRVTITVDTSASTAYMELSSLRSEDTAVYYCARRRIAYGYDEGHAMDYWGQGTLVTVSSASTKGPSVFPLAPSSKSTSGGTAALGCLVKDYFPEPVTVSWNSGALTSGVHTFPAVLQSSGLYSLSSVVTVPSSSLGTQTYICNVNHKPSNTKVDKKVEPKSCDKTHTCPPCPAPELLGGPSVFLFPPKPKDTLMISRTPEVTCVVVAVSHEDPEVKFNWYVDGVEVHNAKTKPREEQYGSTYRVVSVLTVLHQDWLNGKEYKCKVSNKALPAPIEKTISKAKGQPREPQVYTLPPSRDELTKNQVSLWCLVKGFYPSDIAVEWESNGQPENNYKTTPPVLDSDGSFFLYSKLTVDKSRWQQGNVFSCSVMHEALHNHYTQKSLSLSPGK light: not shown not shown
2 | 99.3% | 4 times | 0.147 nM | ≥ 99% | ~20 nM |  |  |  | 1.3 nM | 0.000124 s⁻¹ | 94900 M⁻¹ s⁻¹ | T1.03 (anti-hu FAP/hu IL-12 mut2, hu IgG1 DANG) (bispecific antibody, Knob-in-hole heterodimer) heavy: QVQLVQSGAEVKKPGASVKVSCKTSRYTFTEYTIHWVRQAPGQRLEWIGGINPNNGIPNYNQKFKGRVTITVDTSASTAYMELSSLRSEDTAVYYCARRRIAYGYDEGHAMDYWGQGTLVTVSSASTKGPSVFPLAPSSKSTSGGTAALGCLVKDYFPEPVTVSWNSGALTSGVHTFPAVLQSSGLYSLSSVVTVPSSSLGTQTYICNVNHKPSNTKVDKKVEPKSCDKTHTCPPCPAPELLGGPSVFLFPPKPKDTLMISRTPEVTCVVVAVSHEDPEVKFNWYVDGVEVHNAKTKPREEQYGSTYRVVSVLTVLHQDWLNGKEYKCKVSNKALPAPIEKTISKAKGQPREPQVYTLPPSRDELTKNQVSLWCLVKGFYPSDIAVEWESNGQPENNYKTTPPVLDSDGSFFLYSKLTVDKSRWQQGNVFSCSVMHEALHNHYTQKSLSLSPGK light: not shown not shown
3 | 99.8% | 9.4 times | 0.0145 nM | ≥ 99% | ~20 nM | 0.588 nM | 0.000152 s⁻¹ | 258000 M⁻¹ s⁻¹ |  |  |  | T1.01 (anti-hu FAP/hu IL-12, hu IgG1 DANG) (bispecific antibody, Knob-in-hole heterodimer: one anti-FAP Fab arm and one single-chain human IL-12 (p40-linker-p35) Fc arm) heavy: QVQLVQSGAEVKKPGASVKVSCKTSRYTFTEYTIHWVRQAPGQRLEWIGGINPNNGIPNYNQKFKGRVTITVDTSASTAYMELSSLRSEDTAVYYCARRRIAYGYDEGHAMDYWGQGTLVTVSSASTKGPSVFPLAPSSKSTSGGTAALGCLVKDYFPEPVTVSWNSGALTSGVHTFPAVLQSSGLYSLSSVVTVPSSSLGTQTYICNVNHKPSNTKVDKKVEPKSCDKTHTCPPCPAPELLGGPSVFLFPPKPKDTLMISRTPEVTCVVVAVSHEDPEVKFNWYVDGVEVHNAKTKPREEQYGSTYRVVSVLTVLHQDWLNGKEYKCKVSNKALPAPIEKTISKAKGQPREPQVYTLPPSRDELTKNQVSLWCLVKGFYPSDIAVEWESNGQPENNYKTTPPVLDSDGSFFLYSKLTVDKSRWQQGNVFSCSVMHEALHNHYTQKSLSLSPGK light: not shown not shown
